In patent publication US20170210813A1 (Regeneron, published 2017):
Numbering of substitutions follows the chain as printed. In names and notes the source's numbering stands.

T1: Macaca fascicularis PDGFRb.mmh (Macaca fascicularis)
T1 construct: Soluble monomeric construct; also called mfPDGFRb.mmh
T1 chain: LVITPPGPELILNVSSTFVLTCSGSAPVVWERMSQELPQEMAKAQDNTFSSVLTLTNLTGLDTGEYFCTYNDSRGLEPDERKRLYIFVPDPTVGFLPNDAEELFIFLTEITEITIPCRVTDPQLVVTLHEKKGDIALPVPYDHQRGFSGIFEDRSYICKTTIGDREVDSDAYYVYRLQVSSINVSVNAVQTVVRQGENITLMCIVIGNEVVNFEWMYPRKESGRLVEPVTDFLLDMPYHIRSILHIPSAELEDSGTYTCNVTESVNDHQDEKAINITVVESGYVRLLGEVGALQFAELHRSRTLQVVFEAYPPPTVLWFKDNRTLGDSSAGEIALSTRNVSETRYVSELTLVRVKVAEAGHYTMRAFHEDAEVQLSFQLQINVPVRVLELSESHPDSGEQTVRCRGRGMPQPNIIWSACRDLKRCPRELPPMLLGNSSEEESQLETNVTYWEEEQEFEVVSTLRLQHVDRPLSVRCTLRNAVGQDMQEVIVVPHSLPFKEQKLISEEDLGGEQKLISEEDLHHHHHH

T2: human PDGFRb.mFc (human)
T2 construct: Soluble dimeric construct with mouse Fc; also called hPDGFRb.mFc; soluble human PDGFR-beta.mFc
T2 chain: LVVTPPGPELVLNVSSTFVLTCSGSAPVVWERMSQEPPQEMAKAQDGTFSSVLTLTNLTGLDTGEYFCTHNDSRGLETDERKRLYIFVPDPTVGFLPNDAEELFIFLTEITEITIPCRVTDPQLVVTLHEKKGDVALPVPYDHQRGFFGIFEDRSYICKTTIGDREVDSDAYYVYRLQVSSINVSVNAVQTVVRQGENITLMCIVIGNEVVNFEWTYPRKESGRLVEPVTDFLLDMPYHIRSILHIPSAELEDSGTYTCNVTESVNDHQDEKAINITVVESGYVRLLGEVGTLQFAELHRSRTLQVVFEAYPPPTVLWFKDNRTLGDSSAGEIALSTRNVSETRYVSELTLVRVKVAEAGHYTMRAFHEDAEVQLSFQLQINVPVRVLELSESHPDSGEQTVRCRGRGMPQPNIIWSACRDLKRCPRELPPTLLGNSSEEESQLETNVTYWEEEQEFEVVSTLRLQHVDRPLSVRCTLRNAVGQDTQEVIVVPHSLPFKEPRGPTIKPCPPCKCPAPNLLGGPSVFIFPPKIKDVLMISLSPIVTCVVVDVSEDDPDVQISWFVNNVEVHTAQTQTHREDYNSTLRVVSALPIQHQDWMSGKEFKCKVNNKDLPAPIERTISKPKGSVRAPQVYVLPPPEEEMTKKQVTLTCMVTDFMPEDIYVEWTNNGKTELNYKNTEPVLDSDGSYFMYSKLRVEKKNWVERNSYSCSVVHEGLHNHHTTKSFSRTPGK

B1: H4H3095S (antibody, human IgG4, V domains shown)
VH: EVQLVESGGGLVQPGGSLRLSCGASGFTFSSYWMTWVRQAPGKGLEWVGNINQDGSEKYSVDSVKGRFTISRDNAKNSLYLQMNRVRAEDTAVYYCSRDLVPPRQGDNYYYFGMDVWGLGTTVTVSS
VL: DIQMTQSPSTLSASVGDRVIITCRASQNINNWLAWYQQQPGKAPKLLIYEASSLESGVPSRFSGSGSGTEFTLTIGSLQPDDFATYYCQHYNSYSRTFGQGTKVDIK
notes: human IgG4 Fc (H4H prefix)
B2: H4H3105S (antibody, human IgG4, V domains shown)
VH: QVQLVESGGSLVQPGGSLRLACTASGFTFSSYWMSWVRQAPGKGLEWVANIQQDENEKYYVDSVKGRFSISRDNAKKSLYLQMNSLRVEDTAVYFCARDLVPPRQGDYYHYFGMDVWGQGTTVTVSS
VL: DIQLTQSPSTLSASVGDRVTITCRASQSISDWLAWYQQKPGKAPNLLIYKASTLESGVPSRFSGSGSGTEFTLTISSLQPDDFATYYCQQYNSYSRTFGQGTKVEIK
notes: human IgG4 Fc (H4H prefix)
B3: H4H3106S (antibody, human IgG4, V domains shown)
VH: QVQLVESGGGLVQPGGSLRLSCAASGFTFSSYWMSWVRQVPGKGLEWVANMNQDGTEKYYVDSVKGRLTISRENVKNSLYLQMNGLRAEDTAVYYCARDLVPPRQGDYYYYFGMDVWGHGTMVTVSS
VL: B2 VL with D1A, L4M, R18I, N45K, Y49F, T53S, E70D, E105D
notes: human IgG4 Fc (H4H prefix)
B4: H1M3305N (antibody, mouse IgG1, V domains shown)
VH: QLQLQESGPGLVKPSETLSLTCIVSGGSISSSSYYWGWIRQPPGKGLEWIGSLYYSGITFYNPSLKSRVTISVDTSKNQFSLTLTSVTAADTAVFYCARHRVMASSPFDHWGQGTLVTVSS
VL: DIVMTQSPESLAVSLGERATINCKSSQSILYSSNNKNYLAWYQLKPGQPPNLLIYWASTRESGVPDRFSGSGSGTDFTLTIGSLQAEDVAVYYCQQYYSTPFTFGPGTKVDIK
notes: human variable domains with mouse constant domains, mouse IgG1 Fc (H1M prefix)
B5: H1M3299N (antibody, mouse IgG1, V domains shown)
VH: QVQLVESGGGVVQPGRSLRLSCAASGFTFSSYGLHWVRQAPGKGLEWVALISNVGSNKYYADSVKGRFTISRDNSKNSLFLQMNSLRAEDTAVYYCAKGADYYYYGMDVWGQGTTVTVSS
VL: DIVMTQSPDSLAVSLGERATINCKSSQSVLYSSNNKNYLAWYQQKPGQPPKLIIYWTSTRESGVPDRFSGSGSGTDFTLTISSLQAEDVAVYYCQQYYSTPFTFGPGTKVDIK
notes: mouse IgG1 Fc (H1M prefix)

Target: T1, Macaca fascicularis PDGFRb.mmh
Test: SPR, mAb captured, 37 C
Description: (§1) Antibodies, expressed as either mouse Fc (prefix H1M; H2M) or human Fc (prefix H4H), were captured on their respective anti-Fc sensor surfaces (Mab capture format). […] Kinetic association (kₐ) and dissociation (kd) rate constants were determined by processing and fitting the data to a 1:1 binding model using Scrubber 2.0 curve fitting software.

Row | Binder | Kd | koff | kon | t1/2
1 | B1 | 33.3 nM | 0.00797 s⁻¹ | 239000 M⁻¹ s⁻¹ | 1.5 min
2 | B2 | 14.4 nM | 0.00416 s⁻¹ | 289000 M⁻¹ s⁻¹ | 3 min
3 | B3 | 9.26 nM | 0.00345 s⁻¹ | 372000 M⁻¹ s⁻¹ | 3 min

target: T3, hPDGFRb.mmh (human, UniProt P09619 33-531); test: SPR, mAb captured, 37 C
T3 construct: Soluble monomeric construct; also called soluble human PDGFR-beta.mmh
Description: as §1

Row | Binder | Kd | koff | kon | t1/2
4 | B4 | 0.88 nM | 0.000102 s⁻¹ | 116000 M⁻¹ s⁻¹ | 113 min
5 | B1 | 13.8 nM | 0.00624 s⁻¹ | 452000 M⁻¹ s⁻¹ | 2 min
6 | B5 | 68.6 nM | 0.00217 s⁻¹ | 31600 M⁻¹ s⁻¹ | 5 min
7 | B2 | 11.3 nM | 0.00354 s⁻¹ | 314000 M⁻¹ s⁻¹ | 3 min
8 | B3 | 8.49 nM | 0.00335 s⁻¹ | 394000 M⁻¹ s⁻¹ | 3 min

target: T4, human PDGFRb.hFc (human); test: SPR, mAb captured, 37 C
T4 construct: Soluble dimeric construct with human Fc; also called hPDGFRb.hFc
Description: as §1

Row | Binder | Kd | koff | kon | t1/2
9 | B1 | 1.67 nM | 0.00071 s⁻¹ | 425000 M⁻¹ s⁻¹ | 16 min
10 | B2 | 3 nM | 0.000824 s⁻¹ | 280000 M⁻¹ s⁻¹ | 14 min
11 | B3 | 2.08 nM | 0.000741 s⁻¹ | 356000 M⁻¹ s⁻¹ | 16 min

target: full length human PDGFR-beta on HEK293 cells (human, UniProt P09619 33-1106); test: cell-based or functional assay

Row | Binder | IC50, blocking PDGF-BB (250 pM) activation, SRE-luciferase | IC50, blocking PDGF-DD (400 pM) activation, SRE-luciferase
12 | B4 | 8.5e-09 M | 1.9e-10 M
13 | B1 | 6.1e-10 M | 8.2e-10 M
14 | B5 | 5.6e-10 M | 4.2e-10 M
15 | B2 | 5.8e-10 M | 5.1e-10 M
16 | B3 | 7.4e-10 M | 5.2e-10 M

target: T3, hPDGFRb.mmh; test: blocking ELISA, biot-hPDGFRb.mmh to coated PDGF-BB
Description: The equilibrated PDGFR-beta/antibody solutions were added to ligand-coated plates, allowed to incubate for 1 hr, and washed. Levels of bound biot-hPDGFR-beta.mmh were detected using HRP conjugated streptavidin. Data were analyzed using Prism software and IC₅₀ values were calculated as the amount of antibody required to achieve 50% reduction of hPDGFR-beta-mmh bound to ligand. Maximum blocking values were also calculated and reflect the ability of the antibody to block relative to baseline. The absorbance measured at the constant amount of 250 pM biot-hPDGFR-beta-mmh on the dose curve is defined as 0% blocking and the absorbance with no added PDGFR-beta is defined as 100%. The absorbance of the wells containing the highest antibody concentration determined the maximum blocking percent.

Row | Binder | % Maximum Blocking | IC50
17 | B4 | 83% | 0.085 nM
18 | B1 | 82% | 1.4 nM
19 | B5 | 67% | 7.6 nM
20 | B2 | 86% | 0.16 nM
21 | B3 | 86% | 0.17 nM

Target: T1, Macaca fascicularis PDGFRb.mmh
Test: SPR, mAb captured, 25 C
Description: as §1

Row | Binder | Kd | koff | kon | t1/2 | binding result
22 | B4 | 0.816 nM | 4.16e-05 s⁻¹ | 51000 M⁻¹ s⁻¹ | 278 min | –
23 | B1 | 8.5 nM | 0.00175 s⁻¹ | 207000 M⁻¹ s⁻¹ | 7 min | –
24 | B5 | – | – | – | – | no binding
25 | B2 | 5.2 nM | 0.000932 s⁻¹ | 180000 M⁻¹ s⁻¹ | 12 min | –
26 | B3 | 4.65 nM | 0.000882 s⁻¹ | 190000 M⁻¹ s⁻¹ | 13 min | –

target: T3, hPDGFRb.mmh; test: SPR, mAb captured, 25 C
Description: as §1

Row | Binder | Kd | koff | kon | t1/2
27 | B4 | 0.808 nM | 2.52e-05 s⁻¹ | 31200 M⁻¹ s⁻¹ | 458 min
28 | B1 | 4.78 nM | 0.00136 s⁻¹ | 285000 M⁻¹ s⁻¹ | 8 min
29 | B5 | 43.5 nM | 0.00092 s⁻¹ | 21100 M⁻¹ s⁻¹ | 13 min
30 | B2 | 3.19 nM | 0.000784 s⁻¹ | 246000 M⁻¹ s⁻¹ | 15 min
31 | B3 | 2.49 nM | 0.000744 s⁻¹ | 299000 M⁻¹ s⁻¹ | 16 min

target: T4, human PDGFRb.hFc; test: SPR, mAb captured, 25 C
Description: as §1

Row | Binder | Kd | koff | kon | t1/2
32 | B1 | 0.72 nM | 0.000232 s⁻¹ | 321000 M⁻¹ s⁻¹ | 50 min
33 | B2 | 0.91 nM | 0.000225 s⁻¹ | 247000 M⁻¹ s⁻¹ | 51 min
34 | B3 | 0.686 nM | 0.000215 s⁻¹ | 314000 M⁻¹ s⁻¹ | 54 min

Target: T2, human PDGFRb.mFc
Test: SPR, mAb captured, 25 C
Description: as §1

Row | Binder | Kd | koff | kon | t1/2
35 | B4 | ≤ 0.00617 nM | ≤ 1e-06 s⁻¹ | 162000 M⁻¹ s⁻¹ | 8.02 days
36 | B5 | 6.35 nM | 0.000165 s⁻¹ | 25900 M⁻¹ s⁻¹ | 0.0486 days
